Laboratory results reported in publication PMC2965767, “Identification and Genome-Wide Prediction of DNA Binding Specificities for the ApiAP2 Family of Regulators from the Malaria Parasite”.

T1: PFD0985w D2ext (ApiAP2) (Plasmodium falciparum, UniProt Q8I1N6 3258-3362)
T1 sequence: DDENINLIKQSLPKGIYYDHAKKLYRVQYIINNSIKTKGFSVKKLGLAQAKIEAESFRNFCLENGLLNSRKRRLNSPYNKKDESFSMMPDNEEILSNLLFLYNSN

T2: PFD0985w D2ext (ApiAP2) (Plasmodium falciparum) (UniProt Q8I1N6)
T2 sequence: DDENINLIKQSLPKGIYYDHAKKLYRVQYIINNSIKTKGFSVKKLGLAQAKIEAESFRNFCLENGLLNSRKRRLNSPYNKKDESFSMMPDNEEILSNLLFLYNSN

T3: PFF0670w D2ext (PF3D7_0613800, AP2 domain transcription factor, putative) (Plasmodium falciparum) (UniProt C6KSY0)
T3 sequence: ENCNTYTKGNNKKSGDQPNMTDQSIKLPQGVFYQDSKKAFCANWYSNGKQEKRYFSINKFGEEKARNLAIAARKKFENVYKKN

T4: PF13_0097 D1 (PF3D7_1317200, AP2 domain transcription factor AP2-FG, putative) (Plasmodium falciparum) (UniProt Q8IEE4)
T4 sequence: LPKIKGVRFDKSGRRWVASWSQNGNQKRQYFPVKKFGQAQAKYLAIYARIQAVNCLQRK

T5: PFL1075w D1 (PF3D7_1222400, AP2 domain transcription factor) (Plasmodium falciparum) (UniProt Q8I5J1)
T5 sequence: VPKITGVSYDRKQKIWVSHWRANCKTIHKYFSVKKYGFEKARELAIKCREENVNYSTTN

T6: PF11_0404 D1 (PF3D7_1139300, AP2 domain transcription factor, putative) (Plasmodium falciparum) (UniProt Q8IHX2)
T6 sequence: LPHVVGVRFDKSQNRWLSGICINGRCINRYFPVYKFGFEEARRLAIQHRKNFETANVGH

T7: PF14_0633 D1 (PF3D7_1466400, AP2 domain transcription factor AP2-EXP) (Plasmodium falciparum) (UniProt Q8IKH2)
T7 sequence: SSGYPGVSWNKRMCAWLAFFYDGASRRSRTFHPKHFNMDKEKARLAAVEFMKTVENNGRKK

T8: PF14_0533 D1 (PF3D7_1456000, AP2 domain transcription factor, putative) (Plasmodium falciparum) (UniProt Q8IKR9)
T8 sequence: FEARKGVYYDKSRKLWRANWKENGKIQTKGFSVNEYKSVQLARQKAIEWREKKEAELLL

T9: PFF0200c D1 (PF3D7_0604100, AP2 domain transcription factor) (Plasmodium falciparum) (UniProt C6KSN9)
T9 sequence: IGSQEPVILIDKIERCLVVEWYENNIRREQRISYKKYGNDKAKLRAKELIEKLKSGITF

T10: PF13_0267 D1 (PF3D7_1350900, AP2 domain transcription factor AP2-O4, putative) (Plasmodium falciparum) (UniProt A0A5K1K8Z4)
T10 sequence: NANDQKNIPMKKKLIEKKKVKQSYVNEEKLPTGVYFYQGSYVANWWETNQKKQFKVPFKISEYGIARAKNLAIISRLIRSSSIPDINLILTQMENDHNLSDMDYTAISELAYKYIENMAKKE

T11: PFL1900w DLD (PF3D7_1239200, AP2 domain transcription factor, putative) (Plasmodium falciparum) (UniProt Q8I531)
T11 sequence: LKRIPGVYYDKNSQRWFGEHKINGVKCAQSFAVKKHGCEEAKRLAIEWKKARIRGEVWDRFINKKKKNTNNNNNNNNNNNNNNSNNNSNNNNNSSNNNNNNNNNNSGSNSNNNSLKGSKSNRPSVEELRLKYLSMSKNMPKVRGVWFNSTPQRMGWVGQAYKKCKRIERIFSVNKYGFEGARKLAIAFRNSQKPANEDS

T12: PF10_0075 D1ext (PF3D7_1007700, AP2 domain transcription factor AP2-I) (Plasmodium falciparum) (UniProt Q8IJW6)
T12 sequence: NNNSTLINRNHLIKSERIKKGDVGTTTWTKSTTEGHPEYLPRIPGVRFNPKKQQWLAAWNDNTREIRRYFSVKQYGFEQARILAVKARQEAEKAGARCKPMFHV

T13: PF10_0075 D3ext (PF3D7_1007700, AP2 domain transcription factor AP2-I) (Plasmodium falciparum) (UniProt Q8IJW6)
T13 sequence: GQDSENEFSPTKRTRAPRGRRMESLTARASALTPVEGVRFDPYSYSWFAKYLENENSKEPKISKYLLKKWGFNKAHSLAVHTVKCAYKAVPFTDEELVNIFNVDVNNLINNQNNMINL

T14: PFL1085w D1ext (PF3D7_1222600, AP2 domain transcription factor AP2-G) (Plasmodium falciparum) (UniProt Q8I5I9)
T14 sequence: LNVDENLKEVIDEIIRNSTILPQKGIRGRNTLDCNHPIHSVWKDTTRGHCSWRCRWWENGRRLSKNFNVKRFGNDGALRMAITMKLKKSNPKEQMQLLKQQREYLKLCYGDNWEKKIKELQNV

B1: PFD0985w_D2-1 (motif rank) (dsDNA)
DNA 1: AATATTATAATAGTCGTAGCCATCAATGTGTAACACATGGTAATATAGATTTTCGTTTATATT
DNA 2: AATATAAACGAAAATCTATATTACCATGTGTTACACATTGATGGCTACGACTATTATAATATT
B2: PFD0985w_D2-2 (motif rank) (dsDNA)
DNA 1: AATATTATAATAGTCGTAGCCATCAATCCACACACCATGGTAATATAGATTTTCGTTTATATT
DNA 2: AATATAAACGAAAATCTATATTACCATGGTGTGTGGATTGATGGCTACGACTATTATAATATT
B3: No motif (dsDNA)
DNA 1: AATATTATAATAGTCGTAGCCATCAATAAAAAAAAATGGTAATATAGATTTTCGTTTATATT
DNA 2: AATATAAACGAAAATCTATATTACCATTTTTTTTTATTGATGGCTACGACTATTATAATATT
B4: msp1 (dsDNA)
DNA 1: AAATTGTGTAAATTCATATTCGATAAAGTGCATTAATTTTATTTATCAATTGTAAACATA
DNA 2: TATGTTTACAATTGATAAATAAAATTAATGCACTTTATCGAATATGAATTTACACAATTT
B5: rhopH3 (dsDNA)
DNA 1: ATTAATTTAATATGTACGCAAGGTGCACACTGGTGCATTAAAAAAAAAATATATATTAAT
DNA 2: ATTAATATATATTTTTTTTTTAATGCACCAGTGTGCACCTTGCGTACATATTAAATTAAT
B6: msp10 (dsDNA)
DNA 1: TCAACAATTATTATATAATTAATTAGAAGTGCATTAGGTAACAACTGTCGAATAAATATAT
DNA 2: ATATATTTATTCGACAGTTGTTACCTAATGCACTTCTAATTAATTATATAATAATTGTTGA

Each molecule was assayed against T1, PFD0985w D2ext (ApiAP2) (assay: EMSA; 5 mM MgCl2 with 10 mM EDTA; LightShift buffer, 2.5% glycerol, 50 mM KCl, 0.05% NP-40, 50 ng/uL poly(dI-dC); room temperature, 20 min). Details: tags: N-terminal GST (pGEX-4T1), kept; label: 5' biotin.

Molecule | binding result
B1 | binds
B2 | binds
B3 | no binding

What follows are molecules tested against PF10_0075 D3ext (PF3D7_1007700, AP2 domain transcription factor AP2-I) (Plasmodium falciparum, UniProt Q8IJW6 910-1027) in the same assay as above. Details: tags: N-terminal GST (pGEX-4T1), kept; label: 5' biotin.

Molecule | binding result
B4 | binds
B5 | binds
B6 | binds

What follows are molecules tested against T2, PFD0985w D2ext (ApiAP2) (Plasmodium falciparum) (assay: not given). Details: PBM; highest protein concentration obtained; buffer not given; scale: PBM E-score of the seed 8-mer.

Molecule | binding signal
CCACACAC (double strand) [PFD0985w_D2 Secondary motif 3] | > 0.45
GTGTTACAC (double strand) [PFD0985w_D2 primary motif] | 0.496
GTGYNYACAC / GTGTRNRCAC [PFD0985w_D2 Secondary motif 2] | > 0.45
WATTWCAC (double strand) [PFD0985w_D2 Secondary motif 1] | > 0.45

Each molecule was assayed against T3, PFF0670w D2ext (PF3D7_0613800, AP2 domain transcription factor, putative) (Plasmodium falciparum) (assay: not given). Details: PBM; highest protein concentration obtained; buffer not given; scale: PBM E-score of the seed 8-mer.

Molecule | binding signal
AAGATCTT (double strand) [PFF0670w_D2 Secondary motif 2] | > 0.45
ACCTAGGT (double strand) [PFF0670w_D2 Secondary motif 1] | > 0.45
CTCTAGAG (double strand) [PFF0670w_D2 primary motif] | 0.495

These molecules were tested against T4, PF13_0097 D1 (PF3D7_1317200, AP2 domain transcription factor AP2-FG, putative) (Plasmodium falciparum) (assay: not given). Details: PBM; highest protein concentration obtained; buffer not given; scale: PBM E-score of the seed 8-mer.

Molecule | binding signal
AGCTCAGA (double strand) [PF13_0097 primary motif] | 0.489
TCACYCAR / YTGRGTGA [PF13_0097 Secondary motif 3] | > 0.45
TGATCM / KGATCA [PF13_0097 Secondary motif 2] | > 0.45
TGCTCAA (double strand) [PF13_0097 Secondary motif 1] | > 0.45

These molecules were tested against T5, PFL1075w D1 (PF3D7_1222400, AP2 domain transcription factor) (Plasmodium falciparum) (assay: not given). Details: PBM; highest protein concentration obtained; buffer not given; scale: PBM E-score of the seed 8-mer.

Molecule | binding signal
CTGTATAA (double strand) [PFL1075w Secondary motif 2] | > 0.45
TATATAGC (double strand) [PFL1075w Secondary motif 1] | > 0.45
TATATATA (double strand) [PFL1075w primary motif] | 0.499

The molecules below were run against T6, PF11_0404 D1 (PF3D7_1139300, AP2 domain transcription factor, putative) (Plasmodium falciparum) (assay: not given). Details: PBM; highest protein concentration obtained; buffer not given; scale: PBM E-score of the seed 8-mer.

Molecule | binding signal
TAGAACAA (double strand) [PF11_0404_D1 primary motif] | 0.485
TAGATCGA (double strand) [PF11_0404_D1 Secondary motif 1] | > 0.45

Each molecule was assayed against T7, PF14_0633 D1 (PF3D7_1466400, AP2 domain transcription factor AP2-EXP) (Plasmodium falciparum) (assay: not given). Details: PBM; highest protein concentration obtained; buffer not given; scale: PBM E-score of the seed 8-mer.

Molecule | binding signal
ARCATGCA / TGCATGYT [PF14_0633 Secondary motif 1] | > 0.45
GCATGC (double strand) [PF14_0633 primary motif] | 0.5

What follows are molecules tested against T8, PF14_0533 D1 (PF3D7_1456000, AP2 domain transcription factor, putative) (Plasmodium falciparum) (assay: not given). Details: PBM; highest protein concentration obtained; buffer not given; scale: PBM E-score of the seed 8-mer.

Molecule | binding signal
CACACACAC (double strand) [PF14_0533 primary motif] | 0.5
GTGTGCA (double strand) [PF14_0533 Secondary motif 1] | > 0.45

Each molecule was assayed against T9, PFF0200c D1 (PF3D7_0604100, AP2 domain transcription factor) (Plasmodium falciparum) (assay: not given). Details: PBM; highest protein concentration obtained; buffer not given; scale: PBM E-score of the seed 8-mer.

Molecule | binding signal
CMTGCACCMC / GKGGTGCAKG [PFF0200c_D1 Secondary motif 1] | > 0.45
MCGCACCC / GGGTGCGK [PFF0200c_D1 Secondary motif 2] | > 0.45
WGTGCACTRNA / TNYAGTGCACW [PFF0200c_D1 Secondary motif 3] | > 0.45

What follows are molecules tested against T10, PF13_0267 D1 (PF3D7_1350900, AP2 domain transcription factor AP2-O4, putative) (Plasmodium falciparum) (assay: not given). Details: PBM; highest protein concentration obtained; buffer not given; scale: PBM E-score of the seed 8-mer.

Molecule | binding signal
ACCTAA (double strand) [PF13_0267 Secondary motif 2] | > 0.45
ATTCTAGAA (double strand) [PF13_0267 primary motif] | 0.479
CTANTAG (double strand) [PF13_0267 Secondary motif 1] | > 0.45

These molecules were tested against T11, PFL1900w DLD (PF3D7_1239200, AP2 domain transcription factor, putative) (Plasmodium falciparum) (assay: not given). Details: PBM; highest protein concentration obtained; buffer not given; scale: PBM E-score of the seed 8-mer.

Molecule | binding signal
ACCGCGGT (double strand) [PFL1900w_DLD Secondary motif 2] | > 0.45
ACRACATC / GATGTYGT [PFL1900w_DLD Secondary motif 1] | > 0.45
TCTACAA (double strand) [PFL1900w_DLD primary motif] | 0.468

Each molecule was assayed against T12, PF10_0075 D1ext (PF3D7_1007700, AP2 domain transcription factor AP2-I) (Plasmodium falciparum) (assay: not given). Details: PBM; highest protein concentration obtained; buffer not given; scale: PBM E-score of the seed 8-mer.

Molecule | binding signal
GGGTCGACCC (double strand) [PF10_0075_D1 primary motif] | 0.495
GGTTCCGA (double strand) [PF10_0075_D1 Secondary motif 5] | > 0.45
GTCGCGAC (double strand) [PF10_0075_D1 Secondary motif 3] | > 0.45
RGGTCGTTA / TAACGACCY [PF10_0075_D1 Secondary motif 2] | > 0.45
TCGGKGCA / TGCMCCGA [PF10_0075_D1 Secondary motif 1] | > 0.45

What follows are molecules tested against T13, PF10_0075 D3ext (PF3D7_1007700, AP2 domain transcription factor AP2-I) (Plasmodium falciparum) (assay: not given). Details: PBM; highest protein concentration obtained; buffer not given; scale: PBM E-score of the seed 8-mer.

Molecule | binding signal
ATATGCAC (double strand) [PF10_0075_D3 Secondary motif 3] | > 0.45
GTGCAA (double strand) [PF10_0075_D3 Secondary motif 4] | > 0.45
GTGCACTA (double strand) [PF10_0075_D3 primary motif] | 0.496
GTGCGCAC (double strand) [PF10_0075_D3 Secondary motif 1] | > 0.45
GTGCGKTA / TAMCGCAC [PF10_0075_D3 Secondary motif 2] | > 0.45

These molecules were tested against T14, PFL1085w D1ext (PF3D7_1222600, AP2 domain transcription factor AP2-G) (Plasmodium falciparum) (assay: not given). Details: PBM; highest protein concentration obtained; buffer not given; scale: PBM E-score of the seed 8-mer.

Molecule | binding signal
GTACTACT (double strand) [PFL1085w Secondary motif 1] | > 0.45
GTGGTC (double strand) [PFL1085w Secondary motif 2] | > 0.45
GTGTAC (double strand) [PFL1085w primary motif] | 0.49
